From publication PMC4225485, “The PHD1 finger of KDM5B recognizes unmodified H3K4 during the demethylation of histone H3K4me2/3 by KDM5B” (Protein & Cell, 2014)

How the values were obtained:
[1] = target: T1, PHD1KDM5B (306–360 aa) (Homo sapiens, UniProt Q9UGL1); assay: ITC binding of H3 peptides to PHD1KDM5B
T1 construct: PHDKDM5B (residues 306–360 aa); GST (N, cleaved yes); made in house
T1 sequence (Q9UGL1 306-360): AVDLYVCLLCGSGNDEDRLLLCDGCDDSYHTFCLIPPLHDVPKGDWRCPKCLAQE
Text: The details of the preparation, purification, crystallization and determination of the PHDKDM5B (residues 306–360 aa) X-ray structure were previously described (Guo et al., [2011]). The modified pGEX-6p-1 vectors expressed proteins with the N-terminal GST tag, which is removable by cleavage with a 3C protease, enabling the use of non-tagged proteins in our studies. Only the X-ray structure of free PHD1KDM5B was obtained.
To study the binding affinities in vitro or to construct different NMR samples of the complex, H3K4 peptides without modifications (with the ARTKQTARKS sequence or […] sequence) or with some modifications (H3R2me1, R2 monomethylation; H3R2me2s, R2 symmetric dimethylation; H3R2me2a, R2 asymmetric dimethylation; H3K4me1/2/3, K4 mono-, di-, and tri-methylation; H3K9me1/2/3, K9 mono-, di- and tri-methylation; H3 peptide A1G, R2A, T3V, K4A, Q5E, T6V mutants without any modification) were purchased from GL Biochem Ltd. (Shanghai, China), and their purity was confirmed by HPLC and mass spectrometry.
To investigate whether the PHD1KDM5B finger and its mutants interact with unmodified or methylated H3K4 or H3K4mutants, the binding affinities of PHD1KDM5B or its mutants to H3 peptides were studied. An ITC-200 microcalorimeter (GE Healthcare) was used with a buffer containing 20 mmol/L Tris, 150 mmol/L NaCl, and 1% Triton X-100, pH 7.5 at 25°C. The reference titration of small molecules in the buffer was subtracted from the experimental data, and the data were fitted using the Origin 7.0 (OriginLab Corporation) software.

[2] = target: PHD1 finger of KDM5B (residues 306-360) (UniProt Q9UGL1); assay: ITC; ITC-200, 20 mmol/L Tris, 150 mmol/L NaCl, 1% Triton X-100, pH 7.5, 25°C
[3] = target: T2, PHD1 finger of KDM5B (residues 306-360) (UniProt Q9UGL1 306-360); assay: as above; conditions: both partners purified
T2 construct: 15N- or 13C/15N-labelled (M9 medium) for the NMR experiments; GST removed with 3C protease; also called PHD1_(KDM5B); PHD_(KDM5B); source: recombinant from modified pGEX-6p-1, purified; preparation described in Guo et al., 2011; not shown: GST, N-terminal, cleaved
T2 sequence (looked up): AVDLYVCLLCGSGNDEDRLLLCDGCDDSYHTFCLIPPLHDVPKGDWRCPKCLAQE

[4] = target: H3K4 (1-10aa) K4A (Homo sapiens); assay: ITC; conditions: domain or fragment; chains chain
[5] = target: H3K4 (1-10aa) Q5E (Homo sapiens); assay: ITC; conditions: domain or fragment; chains chain
[6] = target: T3, KDM5B-PHD1-Y334A (Homo sapiens); assay: ITC
T3 chain: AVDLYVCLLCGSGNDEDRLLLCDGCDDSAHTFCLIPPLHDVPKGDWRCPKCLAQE

[7] = target: T4, KDM5B-PHD1-L309A (Homo sapiens); assay: ITC
T4 chain: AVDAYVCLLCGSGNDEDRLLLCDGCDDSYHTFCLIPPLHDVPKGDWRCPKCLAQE

[8] = target: T5, KDM5B-PHD1-V311A (Homo sapiens); assay: ITC
T5 chain: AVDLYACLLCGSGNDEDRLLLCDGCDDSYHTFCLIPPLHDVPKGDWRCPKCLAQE

[9] = target: T6, KDM5B-PHD1-D345A (Homo sapiens); assay: ITC
T6 chain: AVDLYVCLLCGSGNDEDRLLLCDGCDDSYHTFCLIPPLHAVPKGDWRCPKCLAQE

[10] = target: T7, KDM5B-PHD1-S333A (Homo sapiens); assay: ITC
T7 chain: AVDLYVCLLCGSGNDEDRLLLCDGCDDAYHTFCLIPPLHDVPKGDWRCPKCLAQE

[11] = target: T8, KDM5B-PHD1-L324A (Homo sapiens); assay: ITC
T8 chain: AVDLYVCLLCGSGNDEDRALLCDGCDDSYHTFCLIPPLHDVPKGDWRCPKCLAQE

[12] = target: T9, KDM5B-PHD1-D322A (Homo sapiens); assay: ITC
T9 chain: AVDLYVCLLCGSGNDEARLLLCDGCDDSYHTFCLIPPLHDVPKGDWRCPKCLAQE

[13] = target: T10, KDM5B-PHD1-D332A (Homo sapiens); assay: ITC
T10 chain: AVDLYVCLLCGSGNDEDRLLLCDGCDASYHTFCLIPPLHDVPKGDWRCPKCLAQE

[14] = target: T11, PHD1_(KDM5B) Y310F mutant (UniProt Q9UGL1 306-360, Y310F); assay: ITC; ITC-200, 20 mmol/L Tris, 150 mmol/L NaCl, 1% Triton X-100, pH 7.5, 25°C; conditions: both partners purified
T11 construct: also called PHD1 Y310F; source: recombinant from modified pGEX-6p-1, site-directed mutagenesis; not shown: GST, N-terminal, cleaved
T11 sequence (looked up): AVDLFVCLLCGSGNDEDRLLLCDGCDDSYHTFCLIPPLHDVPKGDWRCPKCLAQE

[15] = target: T12, PHD1_(KDM5B) E321A mutant (UniProt Q9UGL1 306-360, E321A); assay: as above; conditions: both partners purified
T12 construct: also called PHD1 E321A; source: recombinant from modified pGEX-6p-1, site-directed mutagenesis; not shown: GST, N-terminal, cleaved
T12 sequence (looked up): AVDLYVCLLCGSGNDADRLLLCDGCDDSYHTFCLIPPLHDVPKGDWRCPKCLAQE

[16] = target: T13, PHD1_(KDM5B) L326A mutant (UniProt Q9UGL1 306-360, L326A); assay: as above; conditions: both partners purified
T13 construct: also called PHD1 L326A; source: recombinant from modified pGEX-6p-1, site-directed mutagenesis; not shown: GST, N-terminal, cleaved
T13 sequence (looked up): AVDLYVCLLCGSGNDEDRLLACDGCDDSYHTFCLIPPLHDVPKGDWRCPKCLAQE

[17] = target: T14, PHD1_(KDM5B) D328A mutant (UniProt Q9UGL1 306-360, D328A); assay: as above; conditions: both partners purified
T14 construct: also called PHD1 D328A; source: recombinant from modified pGEX-6p-1, site-directed mutagenesis; not shown: GST, N-terminal, cleaved
T14 sequence (looked up): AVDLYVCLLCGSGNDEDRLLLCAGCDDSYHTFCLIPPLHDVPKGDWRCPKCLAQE

[18] = target: T15, PHD1_(KDM5B) D308A mutant (UniProt Q9UGL1 306-360, D308A); assay: as above; conditions: both partners purified
T15 construct: also called PHD1 D308A; source: recombinant from modified pGEX-6p-1, site-directed mutagenesis; not shown: GST, N-terminal, cleaved
T15 sequence (looked up): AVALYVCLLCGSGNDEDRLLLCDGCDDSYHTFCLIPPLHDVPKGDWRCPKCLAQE

[19] = target: T16, PHD1_(KDM5B) Y310A mutant (UniProt Q9UGL1 306-360, Y310A); assay: as above; conditions: both partners purified
T16 construct: also called PHD1 Y310A; source: recombinant from modified pGEX-6p-1, site-directed mutagenesis; not shown: GST, N-terminal, cleaved
T16 sequence (looked up): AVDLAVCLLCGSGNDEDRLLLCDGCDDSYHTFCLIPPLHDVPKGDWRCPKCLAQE

[20] = ITC-200, 20 mmol/L Tris, 150 mmol/L NaCl, 1% Triton X-100, pH 7.5, 25°C, H3 peptides residues 1–10, means (± s.d.) of at least three experiments
[21] = Table S1, pH 7.5, 25°C, H3 peptides (1-10aa), N.D. means non-detectable

Which Kd [1, 20] does the source give for `C[C@H](NC(=O)[C@@H](NC(=O)[C@H](CCC(N)=O)NC(=O)[C@H](CCCCN)NC(=O)[C@@H](NC(=O)[C@H](CCCNC(=N)N)NC(=O)CN)[C@@H](C)O)[C@@H](C)O)C(=O)N[C@@H](CCCNC(=N)N)C(=O)N[C@@H](CCCCN)C(=O)N[C@@H](CO)C(=O)O` [H3K4 (1-10aa) A1G] here?
Its Kd is 305 ± 11.7 µM.

How did the Kd [1, 21] turn out when `C[C@H](N)C(=O)N[C@@H](CCCNC(=N)N)C(=O)N[C@H](C(=O)N[C@@H](C)C(=O)N[C@@H](CCC(N)=O)C(=O)N[C@H](C(=O)N[C@@H](C)C(=O)N[C@@H](CCCNC(=N)N)C(=O)N[C@@H](CCCCN)C(=O)N[C@@H](CO)C(=O)O)[C@@H](C)O)[C@@H](C)O` [H3K4 (1-10aa) K4A] was run?
Its Kd is 15.9 ± 1.2 µM.

`C[C@H](N)C(=O)N[C@@H](CCCNC(=N)N)C(=O)N[C@H](C(=O)N[C@@H](CCCCN)C(=O)N[C@@H](CCC(=O)O)C(=O)N[C@H](C(=O)N[C@@H](C)C(=O)N[C@@H](CCCNC(=N)N)C(=O)N[C@@H](CCCCN)C(=O)N[C@@H](CO)C(=O)O)[C@@H](C)O)[C@@H](C)O` [H3K4 (1-10aa) Q5E] was tested. Which Kd [1, 21] did it give?
The Kd was 21.4 ± 1.7 µM.

`C[C@H](N)C(=O)N[C@@H](C)C(=O)N[C@H](C(=O)N[C@@H](CCCCN)C(=O)N[C@@H](CCC(N)=O)C(=O)N[C@H](C(=O)N[C@@H](C)C(=O)N[C@@H](CCCNC(=N)N)C(=O)N[C@@H](CCCCN)C(=O)N[C@@H](CO)C(=O)O)[C@@H](C)O)[C@@H](C)O` [H3K4 (1-10aa) R2A] was tested. Which Kd [1, 20] did it give?
The Kd was 370 ± 52.1 µM.

Which Kd [1, 20] does the source give for `CC(C)[C@H](NC(=O)[C@H](CCCNC(=N)N)NC(=O)[C@H](C)N)C(=O)N[C@@H](CCCCN)C(=O)N[C@@H](CCC(N)=O)C(=O)N[C@H](C(=O)N[C@@H](C)C(=O)N[C@@H](CCCNC(=N)N)C(=O)N[C@@H](CCCCN)C(=O)N[C@@H](CO)C(=O)O)[C@@H](C)O` [H3K4 (1-10aa) T3V] here?
The Kd was 57.1 ± 2.2 µM.

For `CC(C)[C@H](NC(=O)[C@H](CCC(N)=O)NC(=O)[C@H](CCCCN)NC(=O)[C@@H](NC(=O)[C@H](CCCNC(=N)N)NC(=O)[C@H](C)N)[C@@H](C)O)C(=O)N[C@@H](C)C(=O)N[C@@H](CCCNC(=N)N)C(=O)N[C@@H](CCCCN)C(=O)N[C@@H](CO)C(=O)O` [H3K4 (1-10aa) T6V], which Kd [1, 20] is on record?
Its Kd is 61.3 ± 1.6 µM.

Which Kd [2] does the source give for “H3 peptide A1G mutant (from UniProt P68431 2-11)” here?
Its Kd is 305 µM.

With “H3 peptide R2A mutant (from UniProt P68431 2-11)” as the molecule, how does the Kd [2] read?
The Kd was 370 µM.

How did the Kd [2] turn out when “H3 peptide T3V mutant (from UniProt P68431 2-11)” was run?
Its Kd is 57.1 µM.

“H3 peptide T6V mutant (from UniProt P68431 2-11)” was tested. Which Kd [2] did it give?
The Kd was 61.3 µM.

How did the KD [1, 20] turn out when “H3K4 (1-10aa) K4E: unmodified H3 peptide (1-10aa) K4E mutant (ARTEQTARKS; UniProt P68431 2-11, looked up, variant K4E)” was run?
The KD was “non-detectable”.

For “H3K4 (1-10aa) R2E: unmodified H3 peptide (1-10aa) R2E mutant (AETKQTARKS; UniProt P68431 2-11, looked up, variant R2E)”, which KD [1, 20] is on record?
Its KD is “too small to detect”.

B1: tri-methylated H3K4me3 peptide (residues 1-10) (peptide)
peptide: ARTKQTARKS
modifications: trimethyl-lysine at K4
notes: histone H3 N-terminal tail, residues 1-10; source: synthetic peptide, bought: GL Biochem Ltd. (Shanghai, China)
For B1, which Kd [3] is on record?
The Kd was 104 µM.

B2: PHD1 finger of KDM5B (residues 306-360), Q9UGL1 306-360 (protein)
chain: AVDLYVCLLCGSGNDEDRLLLCDGCDDSYHTFCLIPPLHDVPKGDWRCPKCLAQE
Which results are given for B2?
Kd [4]: 15.9 µM; Kd [5]: 21.4 µM

B3: unmodified H3K4 peptide (residues 1-10) (peptide)
peptide: ARTKQTARKS
notes: histone H3 N-terminal tail, residues 1-10; also called H3K4me0; H3K4me0 peptide; source: synthetic peptide, bought: GL Biochem Ltd. (Shanghai, China)
With B3 as the molecule, how does the Kd [6] read?
Its Kd is 12.6 µM.

And the Kd [7]?
Its Kd is 8.3 µM.

And the Kd [8]?
Its Kd is 8.2 µM.

What about the Kd [9] of the same molecule?
Its Kd is 6.7 µM.

What about the Kd [10] of the same molecule?
The Kd was 12.9 µM.

What about the Kd [11] of the same molecule?
Its Kd is 15.3 µM.

And the Kd [12]?
Its Kd is 10.7 µM.

What about the Kd [13] of the same molecule?
The Kd was 11.3 µM.

And the Kd [3]?
Its Kd is 6.4 µM.

What about the Kd [14] of the same molecule?
Its Kd is 4.3 ± 0.2 µM.

And the Kd [15]?
Its Kd is 75.8 ± 5.7 µM.

And the Kd [16]?
Its Kd is 14.1 ± 0.8 µM.

And the Kd [17]?
Its Kd is 182 ± 21.9 µM.

What about the Kd [18] of the same molecule?
Its Kd is 41.7 ± 2.2 µM.

And the Kd [19]?
Its Kd is 28.1 ± 1.3 µM.
